Reference: patent US20180036445A1
One block for each substance: values may come before it.

Tests used:
[1] = target: Fab/Mab (sample loaded in Example 3); test: 10% breakthrough dynamic binding capacity, MabSelect column, residence time 6 min, no SIP
[2] = target: Fab/Mab (sample loaded in Example 3); test: 10% breakthrough dynamic binding capacity, MabSelect Xtra column, residence time 6 min, no SIP
[3] = target: Fab/Mab (sample loaded in Example 3); test: 10% breakthrough dynamic binding capacity, MabSelect Xtra column, after 24 h in 0.1 M peracetic acid
[4] = target: Fab/Mab (sample loaded in Example 3); test: difference of dynamic binding capacity, after SIP minus control without SIP, MabSelect
[5] = target: Fab/Mab (sample loaded in Example 3); test: difference of dynamic binding capacity, after SIP minus control without SIP, MabSelect Xtra
[6] = target: Fab/Mab (sample loaded in Example 3); test: 10% breakthrough dynamic binding capacity, MabSelect column, after 24 h in 0.1 M peracetic acid
[7] = target: Fab/Mab (sample loaded in Example 3); test: 10% breakthrough dynamic binding capacity, ligand on agarose column, residence time 6 min, no SIP
[8] = target: Fab/Mab (sample loaded in Example 3); test: difference of dynamic binding capacity, after SIP minus control without SIP
[9] = target: Fab/Mab (sample loaded in Example 3); test: 10% breakthrough dynamic binding capacity, ligand on agarose column, after 24 h in 0.1 M peracetic acid
[10] = target: Fab (sample of Example 4); test: static binding capacity in filter plate, after 4 h in 100 mM peracetic acid, 90 min incubation with Fab, relative to PBS control
[11] = target: Fab (sample of Example 4); test: static binding capacity in filter plate, after 24 h in 500 mM peracetic acid, 90 min incubation with Fab, relative to PBS control
[12] = target: Fab (sample of Example 4); test: static binding capacity in filter plate, after 4 h in 500 mM peracetic acid, 90 min incubation with Fab, relative to PBS control
[13] = target: Fab (sample of Example 4); test: static binding capacity in filter plate, after 4 h in 100 mM peracetic acid, 10 min incubation with Fab, relative to PBS control
[14] = target: Fab (sample of Example 4); test: static binding capacity in filter plate, after 24 h in 500 mM peracetic acid, 10 min incubation with Fab, relative to PBS control
[15] = target: Fab (sample of Example 4); test: static binding capacity in filter plate, after 4 h in 5% H2O2, 90 min incubation with Fab, relative to PBS control
[16] = target: Fab (sample of Example 4); test: static binding capacity in filter plate, after 24 h in 5% H2O2, 10 min incubation with Fab, relative to PBS control
[17] = target: Fab (sample of Example 4); test: static binding capacity in filter plate, after 24 h in 100 mM peracetic acid, 10 min incubation with Fab, relative to PBS control
[18] = target: Fab/Mab (sample loaded in Example 3); test: 10% breakthrough dynamic binding capacity, ligand on agarose column, after 24 h in 0.1 M peracetic acid (ligand degraded by the treatment)

recombinant Protein L (rPrL), sequence (chain): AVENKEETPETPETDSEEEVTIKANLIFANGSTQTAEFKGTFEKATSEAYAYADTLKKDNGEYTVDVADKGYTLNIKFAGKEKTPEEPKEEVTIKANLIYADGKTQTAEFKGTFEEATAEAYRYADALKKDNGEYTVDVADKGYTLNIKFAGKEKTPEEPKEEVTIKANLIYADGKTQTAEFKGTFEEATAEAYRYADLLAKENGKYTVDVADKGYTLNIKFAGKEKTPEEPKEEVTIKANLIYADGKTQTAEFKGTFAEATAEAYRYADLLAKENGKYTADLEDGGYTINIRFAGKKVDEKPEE

- Relative remaining SBC (%) [10]: 101%
- DBC control, no SIP [7]: 30 g/L
- Relative remaining SBC (%) [11]: 102%
- Relative remaining SBC (%) [12]: 103%
- ΔDBC [8]: -1 g/L
- Relative remaining SBC (%) [13]: 109%
- Relative remaining SBC (%) [14]: 97%
- Relative remaining SBC (%) [15]: 102%
- DBC after SIP [9]: 29 g/L
- Relative remaining SBC (%) [16]: 102%
- Relative remaining SBC (%) [17]: 107%
Substance: recombinant Protein L (rPrL)

- DBC control, no SIP [7]: 20 g/L
- DBC after SIP [18]: 0 g/L
- ΔDBC [8]: -20 g/L
Substance: single-chain camelid antibody against IgG kappa chains (KappaSelect ligand) (VHH)

The next lines start with the substance.

Substance: recombinant Protein A (rPrA) (from UniProt P38507 42-327)
- DBC control, no SIP [1]: 52 g/L
- DBC control, no SIP [2]: 59 g/L
- DBC after SIP [3]: 60 g/L
- ΔDBC [4]: -1 g/L
- ΔDBC [5]: 1 g/L
- DBC after SIP [6]: 51 g/L

Substance: MabSelect SuRe ligand (multimer of Protein Z variant with substituted asparagines) (designed binder)
- DBC control, no SIP [7]: 50 g/L
- ΔDBC [8]: 1 g/L
- DBC after SIP [9]: 51 g/L

Substance: MabSelect SuRe LX ligand (multimer of Protein Z variant with substituted asparagines) (designed binder)
- DBC control, no SIP [7]: 63 g/L
- ΔDBC [8]: 0 g/L
- DBC after SIP [9]: 63 g/L
